From IntAct's records for PubMed 31402609

B1: Palmitoyltransferase ZDHHC5 (Homo sapiens), Q9C0B5 (parent)
chain: MPAESGKRFKPSKYVPVSAAAIFLVGATTLFFAFTCPGLSLYVSPAVPIYNAIMFLFVLANFSMATFMDPGIFPRAEEDEDKEDDFRAPLYKTVEIKGIQVRMKWCATCRFYRPPRCSHCSVCDNCVEEFDHHCPWVNNCIGRRNYRYFFLFLLSLTAHIMGVFGFGLLYVLYHIEELSGVRTAVTMAVMCVAGLFFIPVAGLTGFHVVLVARGRTTNEQVTGKFRGGVNPFTNGCCNNVSRVLCSSPAPRYLGRPKKEKTIVIRPPFLRPEVSDGQITVKIMDNGIQGELRRTKSKGSLEITESQSADAEPPPPPKPDLSRYTGLRTHLGLATNEDSSLLAKDSPPTPTMYKYRPGYSSSSTSAAMPHSSSAKLSRGDSLKEPTSIAESSRHPSYRSEPSLEPESFRSPTFGKSFHFDPLSSGSRSSSLKSAQGTGFELGQLQSIRSEGTTSTSYKSLANQTRNGSLSYDSLLTPSDSPDFESVQAGPEPDPPLGYTSPFLSARLAQQREAERHPRLVPTGPTHREPSPVRYDNLSRHIVASLQEREKLLRQSPPLPGREEEPGLGDSGIQSTPGSGHAPRTSSSSDDSKRSPLGKTPLGRPAVPRFGKPDGLRGRGVGSPEPGPTAPYLGRSMSYSSQKAQPGVSETEEVALQPLLTPKDEVQLKTTYSKSNGQPKSLGSASPGPGQPPLSSPTRGGVKKVSGVGGTTYEISV
partner: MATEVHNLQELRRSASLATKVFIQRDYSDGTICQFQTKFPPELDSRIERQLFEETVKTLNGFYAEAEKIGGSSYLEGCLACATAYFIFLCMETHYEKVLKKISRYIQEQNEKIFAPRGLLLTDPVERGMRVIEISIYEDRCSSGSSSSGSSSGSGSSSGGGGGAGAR
B2: Golgin subfamily A member 7B (Homo sapiens), Q2TAP0 (parent)
chain: B1 partner

What was measured:
[1] = variants of: B1; conditions: with gog7b_human GOLGA7B, Q2TAP0
[2] = variants of: B1; conditions: with gog7b_human GOLGA7B, Q2TAP0; remark: listed apart in the source
[3] = variants of: B2; conditions: with zdhc5_human ZDHHC5, Q9C0B5
[4] = variants of: B2; conditions: with zdhc5_human ZDHHC5, Q9C0B5; remark: listed apart in the source

| Variant | effect of a mutation on the interaction [1] | effect of a mutation on the interaction [2] | effect of a mutation on the interaction [3] | effect of a mutation on the interaction [4] |
| --- | --- | --- | --- | --- |
| C134S | with no effect | decreasing interaction strength |  |  |
| C236A;C237A;C245A | disrupting interaction strength |  |  |  |
| MATEVHNLQELRRSASLATKVFIQRDYSDGTIAQFQTKFPPELDSRIERQLFEETVKTLNGFYAEAEKIGGSSYLEGALAAATAYFIFLAMETHYEKVLKKISRYIQEQNEKIFAPRGLLLTDPVERGMRVIEISIYEDRASSGSSSSGSSSGSGSSSGGGGGAGAR [C33A;C78A;C81A;C90A;C141A] |  |  | with no effect | disrupting interaction strength |
